These results are taken from US20180186891A1 (PHILOGEN, published 2018).

The experiment deals with T1, biotinylated Mouse FAP extracellular domain (mouse, UniProt P97321 26-761, biotinylated (site not stated)).
T1 construct: extracellular domain; also called murine antigen
T1 sequence (looked up): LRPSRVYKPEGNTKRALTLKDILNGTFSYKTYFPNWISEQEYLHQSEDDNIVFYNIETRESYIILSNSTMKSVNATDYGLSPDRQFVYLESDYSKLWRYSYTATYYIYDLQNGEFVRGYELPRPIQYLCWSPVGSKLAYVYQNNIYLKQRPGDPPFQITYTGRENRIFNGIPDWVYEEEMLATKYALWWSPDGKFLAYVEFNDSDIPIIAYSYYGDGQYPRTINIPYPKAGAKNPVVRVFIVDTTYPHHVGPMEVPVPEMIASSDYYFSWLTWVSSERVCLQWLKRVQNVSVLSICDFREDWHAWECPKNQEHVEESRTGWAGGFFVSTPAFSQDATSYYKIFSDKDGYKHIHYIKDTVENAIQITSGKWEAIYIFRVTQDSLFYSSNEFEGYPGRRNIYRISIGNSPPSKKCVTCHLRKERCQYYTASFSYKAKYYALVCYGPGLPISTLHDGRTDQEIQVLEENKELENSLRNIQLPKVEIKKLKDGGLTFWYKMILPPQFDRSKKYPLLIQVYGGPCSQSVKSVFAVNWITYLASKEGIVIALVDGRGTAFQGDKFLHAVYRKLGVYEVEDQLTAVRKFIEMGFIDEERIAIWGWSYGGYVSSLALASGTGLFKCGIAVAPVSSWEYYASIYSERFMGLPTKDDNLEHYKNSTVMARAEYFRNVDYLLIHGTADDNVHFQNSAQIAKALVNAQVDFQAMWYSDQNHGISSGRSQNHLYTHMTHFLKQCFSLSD
The experiment is described as follows: ELISA, biotinylated FAP extracellular domain on streptavidin strips, detection with anti-Myc 9E10. The protocol:
ELISA: Streptawell High Bind strips (Roche) were coated with biotinylated Human or Mouse FAP extracellular domain at 100 nM. Cross reactivity with human and murine antigen of the anti-FAP F5 antibody was assessed by detection with the anti-Myc antibody 9E10 and an HRP-conjugated anti-Murine Fc antibody (Sigma). Calorimetric detection of antibody-antigen binding was performed using BM-Blue POD soluble substrate (Roche).

B1: antibody F5 (in scFv format) (scFv, V domains shown)
VH: EVQLLESGGGLVQPGGSLRLSCAASGFTFSPAYMSWVRQAPGKGLEWVSAISGSGGSTYYADSVKGRFTISRDNSKNTLYLQMNSLRAEDTAVYYCAKGWRAFDYWGQGTLVTVSS
VL: EIVLTQSPGTLSLSPGERATLSCRASQSVSRNYLAWYQQKPGQAPRLLIYGASSRATGIPDRFSGSGSGTDFTLTISRLEPEDFAVYYCQQSLGYPPTFGQGTKVEIK
notes: Tested as a single-chain Fv; Detection with anti-Myc antibody 9E10 implies a myc tag; also called F5 antibody; anti-FAP F5 antibody
In the case of B1, the binding result was “binds”.
